Test results reported in patent publication EP4772539A1 (Jiangsu Hengrui Pharmaceuticals Co., Ltd., dated 2026).
Like-named read-outs stand apart in the source and are kept apart here.

T1: human TIGIT (Acro Biosystems Cat#TIT-H52H5) (human, UniProt Q495A1 22-141)
T1 construct: Soluble bought protein; also called TIGIT protein; human TIGIT antigen
T1 sequence (looked up): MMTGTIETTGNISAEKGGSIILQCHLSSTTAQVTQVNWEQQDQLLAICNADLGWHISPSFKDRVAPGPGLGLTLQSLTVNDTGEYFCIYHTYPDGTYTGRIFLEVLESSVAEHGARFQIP

T2: human TIGIT protein expressed on cells (CHOK1-TIGIT) (human, UniProt Q495A1 22-244)
T2 construct: whole, on cells; also called CHOK1-TIGIT cells
T2 sequence (looked up): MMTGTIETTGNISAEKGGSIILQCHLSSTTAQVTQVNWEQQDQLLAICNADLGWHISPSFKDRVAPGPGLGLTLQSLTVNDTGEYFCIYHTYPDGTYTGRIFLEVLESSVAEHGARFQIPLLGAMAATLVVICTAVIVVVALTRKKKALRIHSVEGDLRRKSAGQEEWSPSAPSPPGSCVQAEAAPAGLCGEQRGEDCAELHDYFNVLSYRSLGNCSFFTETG

T3: human CTLA4 protein expressed on cells (CHOK1-CTLA4, HEK293-CTLA4) (human, UniProt P16410 36-223)
T3 construct: whole, on cells; also called CHOK1-CTLA4 cells; HEK293-CTLA4 single-positive cells
T3 sequence (looked up): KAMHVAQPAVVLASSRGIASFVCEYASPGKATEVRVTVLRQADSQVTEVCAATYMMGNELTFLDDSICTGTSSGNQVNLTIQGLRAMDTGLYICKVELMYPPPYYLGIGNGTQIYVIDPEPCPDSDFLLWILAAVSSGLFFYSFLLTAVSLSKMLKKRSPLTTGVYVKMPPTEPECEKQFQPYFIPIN


Columns and labels:
[1] = target: T1, human TIGIT (Acro Biosystems …); assay: SPR (Biacore 8K), antibody captured on Protein A chip, antigen as analyte, 1:1 binding
[2] = target: T1, human TIGIT (Acro Biosystems …); assay: SPR (Biacore 8K), antigen captured by anti-His antibody on CM5 chip, antibody as analyte, 1:1 binding
[3] = target: T2, human TIGIT protein expressed on cells …; assay: flow cytometry, blocking of CHOK1-TIGIT cells binding to CHOK1-CD155 cells (competitor: CD155 on cells)
[4] = target: T2, human TIGIT protein expressed on cells …; assay: flow cytometry on CHOK1-TIGIT cells
[5] = target: T3, human CTLA4 protein expressed on cells …; assay: flow cytometry, blocking of CHOK1-CTLA4 cells binding to CHOK1-CD80 cells (competitor: CD80 on cells)
[6] = target: T3, human CTLA4 protein expressed on cells …; assay: flow cytometry on CHOK1-CTLA4 cells
[7] = target: T3, human CTLA4 protein expressed on cells …; assay: flow cytometry on CHOK1-CTLA4 cells; remark: listed apart in the source

Kd [1] [pM] | koff [1] [s⁻¹] | kon [1] [M⁻¹ s⁻¹] | Kd [2] [pM] | koff [2] [s⁻¹] | kon [2] [M⁻¹ s⁻¹] | IC50 [3] [pM] | EC50 [4] [pM] | IC50 [5] [pM] | EC50 [6] [pM] | EC50 [7] [pM] | Binder
41.1 | 7.13e-05 | 1.73e+06 | 535 | 0.00052 | 972000 | 1440 | 720 | – | – | – | anti-CTLA4/TIGIT antibody As-3 (bispecific antibody, human IgG1, kappa) heavy 1: QVQLVESGGGVVQPGRSLRLSCAASGFTFSSYTMHWVRQAPGKGLEWVTFISYDGNNKYYADSVKGRFTISRDNSKNTLYLQMNSLRAEDTAIYYCARTGWLGPFDYWGQGTLVTVSSGGGGSSGAPRFLTRPKASVVSVGKDATLSCQIVGNPFPQVSWEKDKQPVTAGVRFRLAQDGDLYRLKILDLQLSDSGQYVCRARNAHGEAFACLGLQVDAEADKTHTCPPCPAPELLGGPDVFLFPPKPKDTLMISRTPEVTCVVVDVSHEDPEVKFNWYVDGVEVHNAKTKPREEQYNSTYRVVSVLTVLHQDWLNGKEYKCKVSNKALPLPEEKTISKAKGQPREPQVYTLPPCREEMTKNQVSLWCLVKGFYPSDIAVEWESNGQPENNYKTTPPVLDSDGSFFLYSKLTVDKSRWQQGNVFSCSVMHEALHNHYTQKSLSLSPGK light 1: not shown heavy 2: EVQLVQSGAEVKKPGASVKVSCKASGYTFTNYWMHWVRQAPGQGLEWMGRIDPDSTGSKYNEKFKTRVTMTRDTSTSTVYMELSSLRSEDTAVYYCAREGAYGYYFDYWGQGTLVTVSSASTKGPSVFPLAPSSKSTSGGTAALGCLVKDYFPEPVTVSWNSGALTSGVHTFPAVLQSSGLYSLSSVVTVPSSSLGTQTYICNVNHKPSNTKVDKKVEPKSCDKTHTCPPCPAPELLGGPDVFLFPPKPKDTLMISRTPEVTCVVVDVSHEDPEVKFNWYVDGVEVHNAKTKPREEQYNSTYRVVSVLTVLHQDWLNGKEYKCKVSNKALPLPEEKTISKAKGQPREPQVCTLPPSREEMTKNQVSLSCAVKGFYPSDIAVEWESNGQPENNYKTTPPVLDSDGSFFLVSKLTVDKSRWQQGNVFSCSVMHEALHNHYTQKSLSLSPGK light 2: DIQMTQSPSSLSASVGDRVTITCRASENIYSYLAWYQQKPGKSPKLLIYNARTLAEGVPSRFSGSGSGTDFTLTISSLQPEDFATYYCQYHSGSPLPFGGGTKVEIKRTVAAPSVFIFPPSDEQLKSGTASVVCLLNNFYPREAKVQWKVDNALQSGNSQESVTEQDSKDSTYSLSSTLTLSKADYEKHKVYACEVTHQGLSSPVTKSFNRGEC
– | – | – | – | – | – | – | – | 490 | 1270 | 530 | Anti-CTLA4 antibody Tre (antibody, V domains shown) VH: QVQLVESGGGVVQPGRSLRLSCAASGFTFSSYGMHWVRQAPGKGLEWVAVIWYDGSNKYYADSVKGRFTISRDNSKNTLYLQMNSLRAEDTAVYYCARDPRGATLYYYYYGMDVWGQGTTVTVSS VL: DIQMTQSPSSLSASVGDRVTITCRASQSINSYLDWYQQKPGKAPKLLIYAASSLQSGVPSRFSGSGSGTDFTLTISSLQPEDFATYYCQQYYSTPFTFGPGTKVEIK
– | – | – | – | – | – | 420 | 430 | 1420 | – | 3350 | anti-CTLA4/TIGIT antibody S-15 (bispecific antibody, Symmetric bispecific antibody with one kind of heavy chain and two kinds of light chain) heavy: EVQLVQSGAEVKKPGASVKVSCKASGYTFTNYWMHWVRQAPGQGLEWMGRIDPDSTGSKYNEKFKTRVTMTRDTSTSTVYMELSSLRSEDTAVYYCAREGAYGYYFDYWGQGTLVTVSSASTKGPSVFPLAPSSKSTSGGTAALGCLVKDYFPEPVTVSWNSGALTSGVHTFPAVLQSSGLYSLSSVVTVPSSSLGTQTYICNVNHKPSNTKVDKKVEPKSCDGGGGSGGGGSGGGGSQVQLVESGGGVVQPGRSLRLSCAASGFTFSSYGMHWVRQAPGKGLEWVAVIWYDGSNKYYADSVKGRFTISRDNSKNTLYLQMNSLRAEDTAVYYCARDPRGATLYYYYYGMDVWGQGTTVTVSSGGGGSSGAPRFLTRPKASVVSVGKDATLSCQIVGNPFPQVSWEKDKQPVTAGVRFRLAQDGDLYRLKILDLQLSDSGQYVCRARNAHGEAFACLGLQVDAEADKTHTCPPCPAPELLGGPDVFLFPPKPKDTLMISRTPEVTCVVVDVSHEDPEVKFNWYVDGVEVHNAKTKPREEQYNSTYRVVSVLTVLHQDWLNGKEYKCKVSNKALPLPEEKTISKAKGQPREPQVYTLPPSREEMTKNQVSLTCLVKGFYPSDIAVEWESNGQPENNYKTTPPVLDSDGSFFLYSKLTVDKSRWQQGNVFSCSVMHEALHNHYTQKSLSLSPGK light 1: DIQMTQSPSSLSASVGDRVTITCRASENIYSYLAWYQQKPGKSPKLLIYNARTLAEGVPSRFSGSGSGTDFTLTISSLQPEDFATYYCQYHSGSPLPFGGGTKVEIKRTVAAPSVFIFPPSDEQLKSGTASVVCLLNNFYPREAKVQWKVDNALQSGNSQESVTEQDSKDSTYSLSSTLTLSKADYEKHKVYACEVTHQGLSSPVTKSFNRGEC light 2: DIQMTQSPSSLSASVGDRVTITCRASQSINSYLDWYQQKPGKAPKLLIYAASSLQSGVPSRFSGSGSGTDFTLTISSLQPEDFATYYCQQYYSTPFTFGPGTKVEIKGGGGSGIPPKIECLPIDISIDEGKVLTVASAFTGEPTPEVTWSTGGRKIHSQEQGRFHIENTDDSTTLTIKDVQKQDGGLYTLTLRNEFGSDSATVNIHIRSI
– | – | – | – | – | – | 670 | 480 | – | – | – | Anti-TIGIT antibody RG6058 (antibody, V domains shown) VH: EVQLQQSGPGLVKPSQTLSLTCAISGDSVSSNSAAWNWIRQSPSRGLEWLGKTYYRFKWYSDYAVSVKGRITINPDTSKNQFSLQLNSVTPEDTAVFYCTRESTTYDLLAGPFDYWGQGTLVTVSS VL: not shown
